Source: patent US20180265573A1 (ICAHN SCHOOL OF MEDICINE AT MOUNT SINAI, published 2018)

Legend:
[1] = biological target: baculovirus-expressed hemagglutinin of influenza virus A/Solomon Islands/06 (H1) (influenza A virus A/Solomon Islands/06 …)
[2] = biological target: baculovirus-expressed hemagglutinin of influenza virus A/California/04/09 (H1) (influenza A virus A/California/04/09 …)
[3] = biological target: hemagglutinin of influenza A virus A/Puerto Rico/8/34 (influenza A virus A/Puerto Rico/8/34, UniProt P03452 18-565); assay: cell-based or functional assay
[4] = biological target: T1, hemagglutinin of influenza A virus A/Hong Kong/1/68 (H3) (influenza A virus A/Hong Kong/1/68 (H3), UniProt Q91MA7 17-566); assay: immunofluorescence on infected, fixed MDCK cells
T1 construct: whole, on cells; also called HK68 (H3)

B1: monoclonal antibody GG3 (antibody, V domains shown)
VH: QIQLVQSGPELKKPGETVKISCKASGYTFTNYGMNWVKQAPGKGLKWMGWINIYSGESTYVDDFTGRFAFSLETSASTAYLQINNLKNEDMATYFCARSGDTMITAGRSFFAMDYWGQGTSVTVSS
VL: DIQMTQSPSSLSASLGERVSLTCRASQEISGYLSWLQQKPDGTIKRLIYAASTLDSGVPKRFSGSRSGSDYSLSISSLESEDFADYYCLQYANYPWSFGGGTKLEIK
notes: also called mAb GG3; Mab GG3
EC50 (read off the curve) [1]: ~0.007 µg/mL | EC50 (read off the curve) [2]: ~0.01 µg/mL | IC50 (read off the curve), plaque reduction neutralization assay [3]: ~1 µg/mL | binding result [4]: no binding (tested: 5 µg/mL)
